From article PMC11279866, “Synthesis, Radiolabeling, and Biodistribution Study of a Novel DOTA-Peptide for Targeting Vascular Endothelial Growth Factor Receptors in the Molecular Imaging of Breast Cancer” (Pharmaceutics, 2024)
Read-outs that look alike come from different tables or passages of the source. Where a SMILES comes first, the peptide text is derived from it. Bridges are numbered along the chain shown (N, C = ends). The star is where a group is joined. DOTA = O=C(O)CN1CCN(CC(=O)O)CCN(CC(=O)*)CCN(CC(=O)O)CC1; Ahx = NCCCCCC(=O)O

Tests used:
[1] = n-octanol/water partition coefficient (log p); format: physicochemical; conditions: shake-flask n-octanol/water; 100 μL radiopeptide in 0.99 mL water + 1 mL n-octanol; vortex 5 min, room temperature; centrifugation 10 min 5000 rpm; radioactivity read-out; mean ± SD (n = 3)
Description: A total of 100 μL of the radiolabeled peptide was aliquoted into vials containing 0.99 mL of water and 1 mL of n-octanol, which was then mixed by a vortex mixer (Mabnagene, Tehran, Iran) at room temperature for 5 min. Aqueous and organic layers were separated by centrifugation (10 min, 5000 rpm). Then, 500 μL aliquots of each layer were transferred to the new vials, and the radioactivity of both was measured in a dose calibrator (Capintec CRC®-25, Florham Park, NJ, USA).
The lipid–water partition coefficient for the [^68Ga]Ga-DOTA-Ahx-peptide was estimated in the n-octanol water system, using a […]. Approximately, the log p value was −2.17 ± 0.072, considering the below formula (Equation (2)). The result is reported as mean ± SD (n = 3). […] (2) […]

[2] = Ex vivo biodistribution in 4T1 tumor-bearing BALB/c mice, with blocking experiment; conditions: female, mouse, total radioactivity, mean ± SD (n = 3); for tissue uptake at 0.5 h: 30 min p.i.; for tissue uptake at 1.5 h: 90 min p.i.
Description: (§1) The 4T1 cell line was acquired from the Pasteur Institute of Iran (4T1 is a breast cancer cell line derived from the mammary gland tissue of a mouse BALB/c. (NCBICode: C604/the Pasteur Institute/Tehran/Iran). 4T1 cells are epithelial and can overexpress VEGFRs). The cells were cultured at 37 °C with 5% CO2 in Dulbecco’s modified Eagle’s medium (Gibco, Life Technologies, Carlsbad, CA, USA) supplemented with 10% fetal bovine serum (Gibco) and 1% antibiotics (penicillin and streptomycin). To develop tumor-bearing mice models, Balb/C mice (female, 6–8-week-old, 20–25 g) were purchased from the Institute of Biochemistry and Biophysics (IBB) (University of Tehran, Iran) and kept under the controlled conditions of temperature, humidity, and light/dark cycles with appropriate food and water (approved by the ethics committee of TUMS). Initially, the cells were harvested from the culture flask surface by 10 mM EDTA and centrifuged. After resuspending in serum-free culture medium, 1 × 10^6 cells/100 μL were injected subcutaneously into the right shoulder of mice. In the next 10 days, the tumor size was ready to use for imaging and biodistribution studies with a volume of […] [54].
(§2) The biodistribution of [^68Ga]Ga-DOTA-Ahx-peptide was evaluated in normal and tumor-bearing BALB/c mice. Therefore, 840 kBq in 100 μL saline was injected via the caudal vein of the mice. The animal was euthanized at different time points of 15, 30, 60, and 90 min post-injection using ketamine and xylazine in lethal doses. First, the blood sample was taken from the heart, and then organs (heart, kidney, liver, lungs, etc.) were removed. Tissues were rinsed and weighed, and the radioactivity of each organ was measured using a gamma counter. The organ uptake can be reported as the percentage of injected dose per gram of tissue (ID%/g). A 500-fold excess of DOTA-Ahx-ECRPPDDGLC was used 30 min before radiolabeled peptide injection for the blocking experiment.
Comparative biodistribution studies were conducted in healthy (Figure 7a) and subcutaneously (s.c) tumor-bearing mice (Figure 7b). […] At 30 min, the highest accumulation of the radioactive compound was measured in the kidneys, which was 9.2 ± 0.53%ID/g and increased over time up to 90 min. […] Kidneys in tumor-bearing mice were also the critical organ with the highest radioactivity concentration at different time points (5.62 ± 0.31%ID/g at 30 min and 6.35 ± 0.54%ID/g at 90 min). This increasing profile has confirmed the quick washing-out of important organs such as the heart, lungs, liver, stomach, and intestine, which had relatively high radioactivity uptake. […]
Figure 7 The biodistribution of the [^68Ga]Ga-DOTA-Ahx-peptide in (a) normal and (b) tumor-bearing BALB/c mice. The data are described as %ID/g, calculated at 30, 60, and 90 min after injection. […]

4T1 cells = format: binding, mouse BALB/c
Description: as §1
A competitive binding assay was conducted to determine the value of 50% inhibitory concentration (IC50) for the [^68Ga]Ga-DOTA-Ahx-peptide, using the non-radiolabeled peptide as a competitor. […]

[3] = Ex vivo biodistribution in normal BALB/c mice; conditions: mouse, total radioactivity, mean ± SD (n = 3); for tissue uptake / tissue uptake at 0.5 h: iv, 840 kBq; for tissue uptake: healthy tissues, time point not stated; for tissue uptake at 0.5 h: normal mice
Description: as §2
Comparative biodistribution studies were conducted in healthy (Figure 7a) and subcutaneously (s.c) tumor-bearing mice (Figure 7b). […] Relatively high uptake was also observed in healthy tissues such as the spleen and intestine (3.7 ± 0.29%ID/g and 5.07 ± 0.21%ID/g, respectively). At 30 min, the highest accumulation of the radioactive compound was measured in the kidneys, which was 9.2 ± 0.53%ID/g and increased over time up to 90 min. Considering kidney uptake, this tracer is excreted mainly from this organ. The distribution profile of the [^68Ga]Ga-DOTA-Ahx-peptide in tumor-bearing mice had some similarity to the normal mice. Kidneys in tumor-bearing mice were also the critical organ with the highest radioactivity concentration at different time points (5.62 ± 0.31%ID/g at 30 min and 6.35 ± 0.54%ID/g at 90 min). This increasing profile has confirmed the quick washing-out of important organs such as the heart, lungs, liver, stomach, and intestine, which had relatively high radioactivity uptake. […] The maximum tumor uptake was 30 min after injection (1.51 ± 0.22%ID/g) and decreased by 90 min.
Figure 7 The biodistribution of the [^68Ga]Ga-DOTA-Ahx-peptide in (a) normal and (b) tumor-bearing BALB/c mice. The data are described as %ID/g, calculated at 30, 60, and 90 min after injection. The results are reported as mean ± SD (n = 3). (c) Tumor-to-organ ratio at 30, 60, and 90 min after IV injection. The uptake profile of (d) blood, (e) muscle, (f) liver, and (g) kidneys in comparison with the tumor from 15 to 90 min.

[4] = blood, IV 840 kBq, read-out: blood uptake
[5] = kidney, iv, 840 kBq, read-out: kidney uptake

Compound: CC(C)C[C@@H]1NC(=O)CNC(=O)[C@H](CC(=O)O)NC(=O)[C@H](CC(=O)O)NC(=O)[C@@H]2CCCN2C(=O)[C@@H]2CCCN2C(=O)[C@H](CCCNC(=N)N)NC(=O)[C@@H](NC(=O)[C@H](CCC(=O)O)NC(=O)CCCCCNC(=O)CN2CCN(CC(=O)O)CCN(CC(=O)O)CCN(CC(=O)O)CC2)CSSC[C@@H](C(=O)O)NC1=O [[^68Ga]Ga-DOTA-Ahx-VGB3, metal not drawn] ({DOTA-Ahx}-ECRPPDDGLC-OH; disulfide 2-10)
- log p (n-octanol/water partition coefficient) [1]: ~−2.17 ± 0.072
- tissue uptake at 0.5 h [2, 4]: 1.4 ± 0.18 %ID/g
- tissue uptake at 1.5 h [2, 4]: 0.22 ± 0.06 %ID/g
- tissue uptake at 0.5 h [2, 5]: 5.62 ± 0.31 %ID/g
- tissue uptake at 1.5 h [2, 5]: 6.35 ± 0.54 %ID/g
- IC50 (4T1 cells): ~867 nM
- tissue uptake at 1.5 h ([3]; blood, healthy mice, 90 min p.i., IV 840 kBq): 0.32 ± 0.036 %ID/g
- tissue uptake ([3]; intestine, read-out: intestine uptake): 5.07 ± 0.21 %ID/g
- tissue uptake at 0.5 h ([3]; kidney, 30 min p.i., read-out: kidney uptake): 9.2 ± 0.53 %ID/g
- tissue uptake at 0.5 h ([3]; liver, 30 p.i., read-out: liver uptake (maximum)): 4.41 ± 0.56 %ID/g
- tissue uptake ([3]; spleen, read-out: spleen uptake): 3.7 ± 0.29 %ID/g
